Laboratory results: patent publication US9364516B2, “Treatment of fibrosis-related disorders using fibronectin binding proteins and polypeptides” (priority 2010, dated 2016)

Tests used:
Rat aortic SMCs = assay: Fibronectin and collagen I deposition in cultured SMCs (immunostaining); format: cell-based; details: 500 nM peptide, 3 days, serum containing media
Procedure: FIGS. 1A-1I depict the effect of pUR4 on fibronectin and collagen I deposition in smooth muscle cells (SMCs). Rat aortic SMCs were grown in serum containing media in the absence (FIGS. 1A-1C) or presence of 500 nM pUR4 (FIGS. 1D-1F) or control III-11C (FIGS. 1G-1I) peptides for 3 days. Cell were fixed, and then incubated with a polyclonal antibody to fibronectin (FIGS. 1A, 1D, and 1G) or collagen I (FIGS. 1B, 1E, and 1H). Bar, 20 μm.
Rat aortic smooth muscle cells (RASM) were obtained from Cell Applications (San Diego, Calif.) and maintained in serum containing media (Cell Applications). SMC were used at passages 4-6.
Previous data has shown that fibronectin regulates the deposition of other proteins into the ECM, including type I collagen (Sottile et al., “Fibronectin Polymerization Regulates the Composition and Stability of Extracellular Matrix Fibrils and Cell-Matrix Adhesions,” Mol. Biol. Cell. 13:3546-3559 (2002), which is hereby incorporated by reference in its entirety). […] However, there was a trend toward decreased fibronectin and collagen I mRNA in the carotid artery of animals treated with pUR4 in comparison with control peptide-treated animals (Table 3).

laminin = assay: ELISA binding of pUR4 to ECM proteins: laminin; details: plates coated 10 μg/mL, FIG. 7
Procedure: FIG. 7 is a graph depicting the binding of pUR4 to ECM Proteins. 96-well plates were coated with 10 μg/mL type I collagen (COL), denatured type I collagen (dCOL), fibronectin (FN), laminin (LN), vitronectin (VN), or fibrinogen (FG) at 4° C. overnight. pUR4 was added to the wells and serially diluted. Bound pUR4 was detected as described herein. Measurements were done at 405 nm on a Wallac 1420 multilabel counter. Data represents the average of duplicate determinations, and the error bars the range.
96-well tissue culture plates were coated with 10 μg/mL type I collagen, fibronectin, laminin, fibrinogen, or vitronectin overnight at 4° C. Denatured collagens were generated as described (George et al., “Fibronectins are Essential for Heart and Blood Vessel Morphogenesis but are Dispensable for Initial Specification of Precursor Cells,” Blood 90:3073-3081 (1997), which is hereby incorporated by reference in its entirety). Plates were blocked with 1% bovine serum albumin (BSA) in Tris buffered saline (TBS) for 1 hour, then washed with TBS. pUR4 was serially diluted into coated wells, then incubated at room temperature for 90 min. Wells were washed with TBS containing 0.1% Tween 20. […] After washing, peroxidase activity was quantified by using 2,2′-azino-bis-(3-ethylbenthiazoline-[…]). […]

[1] = test system: left carotid artery of FVB mice; assay: Carotid ligation flow-induced vascular remodeling, morphometry; format: in vivo, mouse
Procedure: Both sexes of FVB transgenic mice were used for the carotid ligation experiments, since no significant differences in their modeling response were reported between male and female mice. All procedures were approved by the University of Rochester Animal Care Committee, and were performed in accordance with the guidelines of the National Institutes of Health for the care and use of laboratory animals.
Digital images of Verhoeff-van Gieson elastic stained cross-sections were captured and morphometric analysis was performed using Image-Pro Plus software (Media Cybernetics, Md.). The circumferences of the lumen, internal elastic lamina (IEL) and external elastic lamina (EEL) in the sections were identified using the automatic trace mode in Image-Pro. The accuracy of the automated tracing was verified by visual inspection of the images. Cross-sectional areas of the lumen, neointima, media, adventitia, and the area encompassed by the EEL were measured. Vessel compartment volumes were calculated as described (Intengan et al., “Vascular Remodeling in Hypertension: Roles of Apoptosis, Inflammation, and Fibrosis,” Hypertension 38:581-587 (2001), which is hereby incorporated by reference in its entirety). Briefly, starting with the carotid bifurcation as the origin, a series of cross-sections of 5 μm were cut every 200 μm through the first mm length of the carotid artery. Morphometric analysis was performed at each point, and the average of each division was calculated, summed, and reported as the volume.
Blood flow in the left carotid artery of 10-week-old FVB/NJ (FVB) mice was reduced by ligating the external and internal carotid arterial branches as described (Korshunov et al., “Flow-Induced Vascular Remodeling in the Mouse: A Model for Carotid Intima-Media Thickening,” Arterioscler. Thromb. Vasc. Biol. 23:2185-2191 (2003), which is hereby incorporated by reference in its entirety). Mice were anesthetized with an intraperitoneal injection of ketamine (80 mg/kg) and xylazine (5 mg/kg) as described in the above-cited referenced. The left common carotid artery was dissected free of the surrounding connective tissue and 50 μL of F-127 pluronic gel (BASF) containing 20 μmol/L pUR4 or III-11C was applied around the carotid artery. Animals were separated into 5 groups containing 5 to 10 animals each: (1) sham-operated, in which the branches of the left carotid artery were exposed and dissected out, but not ligated; (2) ligation; (3) ligation with pluronic gel; (4) ligation with pluronic gel containing III-11C; (5) ligation with pluronic gel containing pUR4.
Blood flow in the left and right common carotid artery was measured using an ultrasonic transit-time volume flowmeter (Transonic Systems) before sacrifice. Animals were perfusion-fixed with 10% formalin 7 or 14 days after surgery. The common carotid arteries were harvested and embedded in paraffin. Cross-sections of 5 μm were cut from the bifurcation every 200 μm through the first mm length of the carotid artery as described (Korshunov et al., “Flow-Induced Vascular Remodeling in the Mouse: a Model for Carotid Intima-Media Thickening,” Arterioscler. Thromb. Vasc. Biol. 23:2185-2191 (2003), which is hereby incorporated by reference in its entirety). Sections were stained with Verhoeff-van Gieson elastic stain, and then subjected to morphometric analysis. […]

[2] = vessel compartments analyzed separately

B1: pUR4: 49-mer peptide derived from the bacterial F1 adhesin, His tagged, SEQ ID NO:1; class I fibronectin polymerization inhibitor (peptide)
chain: MRGSHHHHHHGSKDQSPLAGESGETEYITEVYGNQQNPVDIDKKLPNETGFSGNMVETEDTKLN
modifications: His tag; Bacterial adhesin derived peptide pUR4
For B1, the “deposition of endogenous collagen I into matrix fibrils” value (Rat aortic SMCs) was “inhibited”, the “deposition of endogenous fibronectin into the ECM” value (Rat aortic SMCs) was “inhibited” and the binding to laminin (laminin) was “does not bind”. For the same molecule, the “increase in lumen volume after ligation” value ([1]; 20 μmol/L in pluronic gel, periadventitial) was “prevented”, the “carotid (vascular) remodeling” value ([1]; 20 μmol/L in pluronic gel, periadventitial, 14 days after ligation) was “dramatically reduced” and the “effect on IMT at 7 days” value ([1]; 7 days after ligation) was “no statistical effect”. The “inhibition of adventitial thickening compared to III-11C” value ([1]; 14 days after ligation) was 38%, the “reduction of extent of IMT (intima-media thickening) vs control peptide” value ([1]; 14 days after ligation) was 40% and the “remodeling index, pUR4 vs III-11C” value ([1]; mouse, in vivo) was “not different”. For the same molecule, the “outward remodeling (EEL volume)” value ([1]; no difference in EEL volume vs shams 7 days post ligation) was “prevented”, the “reduction of intima thickening” value [1, 2] was 63% and the “reduction of media thickening” value [1, 2] was 27%.
